Measured values: patent US20100003195A1

Assays:
[1] = target: KDR on KDR-transfected 293H cells (human) (UniProt P35968); experiment: scrambled-peptide microbubbles (Example 35) on KDR-transfected 293H cells, microscopy
[2] = target: KDR on KDR-transfected 293H cells (human) (UniProt P35968); experiment: scrambled-peptide microbubbles (Example 36) on KDR-transfected 293H cells, microscopy
[3] = target: KDR on KDR-transfected 293H cells (human) (UniProt P35968); experiment: scrambled-peptide microballoons (Example 37) on KDR-transfected 293H cells, microscopy

- coverage % of the imaged surface [1]: 2.1%
- coverage % of the imaged surface [2]: 2.2%
- coverage % of the imaged surface [3]: 0.1%
Substance: microvesicles conjugated to a scrambled control peptide
